B1: library; numbered along this chain (parent)
chain: MAAAAAAAAEQQSSNGPVKKSMREKAVERRSVNKEHNSNFKAGYIPIDEDRLHKTGLRGRKGNLAICVIILLFILAVINLIITLVIWAVIRIGPNGCDSMEFHESGLLRFKQVSDMGVIHPLYKSTVGGRRNENLVITGNNQPIVFQQGTTKLSVENNKTSITSDIGMQFFDPRTQNILFSTDYETHEFHLPSGVKSLNVQKASTERITSNATSDLNIKVDGRAIVRGNEGVFIMGKTIEFHMGGNMELKAENSIILNGSVMVSTTRLPSSSSGDQLGSGDWVRYKLCMCADGTLFKVQVTSQNMGCQISDNPCGNTH

In this data set the parent is B1. Briefly: SGCB cell-surface expression functional score (HA stain, bin4 vs bin1, normalised to synonymous) (log10 ratio); higher = more cell-surface SGCB (functional). The procedure, abridged: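 HEK293 cells stably expressing alpha-, gamma- and delta-sarcoglycan received codon-saturation libraries of HA-tagged, YFP-fused human beta-sarcoglycan by lentiviral transduction at MOI <0.1, performed in duplicate. Cells positive for YFP were sorted after 72 hours and cultured for 5–7 days, then stained on ice with Alexa Fluor 647 anti-HA and fixed. Fixed cells were sorted into four 5% intensity bins and amplicon-sequenced, and the log ratio of highest-bin to lowest-bin variant frequency, as a median over codons and transductions, gives the functional score. Per section, synonymous variants were scaled to mean 0, SD 0.5.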
Take MAAAAAAAAEQQSSNGPVKKSMREKAVERRSVNKEHNSNFKAGYIPIDEDRLHKTGLRGRKGNLAICVIILLFILAVINLIITLVIWAVIRIGPNGCDSMEFHESGLLRFKQVSDMGVIHPLYKSTVGGRRNENLVITGNNQPIVFQQGTTKLSVENNKTSITSDIGMQFFDPRTQNILFSTDYETHEFHLPSGVKSLNVQKASTERITSNATSDLNIKVDGRAIVRGNEGVFIMGKTIEFHMGGNMELKAENSIILNGSVMVSTTRLPSSSSGDQLGSGDWVRYKLCMCADGTLFKVQVTCQNMGCQISDNPCGNTH [S302C]: the “SGCB cell-surface expression functional score (log10)” value is -0.53.
In the case of MAAAAAAAAEQQSSNGPVKKSMREKAVERRSVNKEHNSNFKAGYIPIDEDRLHKTGLRGRKGNLAICVIILLFILAVINLIITLVIWAVIRIGPNGCDSMEFHESGLLRFKQVSDMGVIHPLYKSTVGGRRNENLVITGNNQPIVFQQGTTKLSVENNKTSITSDIGMQFFDPRTQNILFSTDYETHEFHLPSGVKSLNVQKASTERITSNATSDLNIKVDGRAIVRGNEGVFIMGKTIEFHMGGNMELKAENSIILNGSVMVSTTRLPSSSSGDQLGSGDWVRYKLCMCADGTLFKVQVTAQNMGCQISDNPCGNTH [S302A], the “SGCB cell-surface expression functional score (log10)” value was -0.01.
MAAAAAAAAEQQSSNGPVKKSMREKAVERRSVNKEHNSNFKAGYIPIDEDRLHKTGLRGRKGNLAICVIILLFILAVINLIITLVIWAVIRIGPNGCDSMEFHESGLLRFKQVSDMGVIHPLYKSTVGGRRNENLVITGNNQPIVFQQGTTKLSVENNKTSITSDIGMQFFDPRTQNILFSTDYETHEFHLPSGVKSLNVQKASTERITSNATSDLNIKVDGRAIVRGNEGVFIMGKTIEFHMGGNMELKAENSIILNGSVMVSTTRLPSSSSGDQLGSGDWVRYKLCMCADGTLFKVQVDSQNMGCQISDNPCGNTH [T301D]: the “SGCB cell-surface expression functional score (log10)” value came to 0.33.
Turning to MAAAAAAAAEQQSSNGPVKKSMREKAVERRSVNKEHNSNFKAGYIPIDEDRLHKTGLRGRKGNLAICVIILLFILAVINLIITLVIWAVIRIGPNGCDSMEFHESGLLRFKQVSDMGVIHPLYKSTVGGRRNENLVITGNNQPIVFQQGTTKLSVENNKTSITSDIGMQFFDPRTQNILFSTDYETHEFHLPSGVKSLNVQKASTERITSNATSDLNIKVDGRAIVRGNEGVFIMGKTIEFHMGGNMELKAENSIILNGSVMVSTTRLPSSSSGDQLGSGDWVRYKLCMCADGTLFKVQVWSQNMGCQISDNPCGNTH [T301W], the “SGCB cell-surface expression functional score (log10)” value was 0.96.
The same measure for MAAAAAAAAEQQSSNGPVKKSMREKAVERRSVNKEHNSNFKAGYIPIDEDRLHKTGLRGRKGNLAICVIILLFILAVINLIITLVIWAVIRIGPNGCDSMEFHESGLLRFKQVSDMGVIHPLYKSTVGGRRNENLVITGNNQPIVFQQGTTKLSVENNKTSITSDIGMQFFDPRTQNILFSTDYETHEFHLPSGVKSLNVQKASTERITSNATSDLNIKVDGRAIVRGNEGVFIMGKTIEFHMGGNMELKAENSIILNGSVMVSTTRLPSSSSGDQLGSGDWVRYKLCMCADGTLFKVQVESQNMGCQISDNPCGNTH [T301E]: 0.06.
Take MAAAAAAAAEQQSSNGPVKKSMREKAVERRSVNKEHNSNFKAGYIPIDEDRLHKTGLRGRKGNLAICVIILLFILAVINLIITLVIWAVIRIGPNGCDSMEFHESGLLRFKQVSDMGVIHPLYKSTVGGRRNENLVITGNNQPIVFQQGTTKLSVENNKTSITSDIGMQFFDPRTQNILFSTDYETHEFHLPSGVKSLNVQKASTERITSNATSDLNIKVDGRAIVRGNEGVFIMGKTIEFHMGGNMELKAENSIILNGSVMVSTTRLPSSSSGDQLGSGDWVRYKLCMCADGTLFKVQVKSQNMGCQISDNPCGNTH [T301K]: the “SGCB cell-surface expression functional score (log10)” value was determined as 0.28.
Turning to MAAAAAAAAEQQSSNGPVKKSMREKAVERRSVNKEHNSNFKAGYIPIDEDRLHKTGLRGRKGNLAICVIILLFILAVINLIITLVIWAVIRIGPNGCDSMEFHESGLLRFKQVSDMGVIHPLYKSTVGGRRNENLVITGNNQPIVFQQGTTKLSVENNKTSITSDIGMQFFDPRTQNILFSTDYETHEFHLPSGVKSLNVQKASTERITSNATSDLNIKVDGRAIVRGNEGVFIMGKTIEFHMGGNMELKAENSIILNGSVMVSTTRLPSSSSGDQLGSGDWVRYKLCMCADGTLFKVQVLSQNMGCQISDNPCGNTH [T301L], the “SGCB cell-surface expression functional score (log10)” value is -0.56.
The same measure for MAAAAAAAAEQQSSNGPVKKSMREKAVERRSVNKEHNSNFKAGYIPIDEDRLHKTGLRGRKGNLAICVIILLFILAVINLIITLVIWAVIRIGPNGCDSMEFHESGLLRFKQVSDMGVIHPLYKSTVGGRRNENLVITGNNQPIVFQQGTTKLSVENNKTSITSDIGMQFFDPRTQNILFSTDYETHEFHLPSGVKSLNVQKASTERITSNATSDLNIKVDGRAIVRGNEGVFIMGKTIEFHMGGNMELKAENSIILNGSVMVSTTRLPSSSSGDQLGSGDWVRYKLCMCADGTLFKVQVMSQNMGCQISDNPCGNTH [T301M]: 0.86; for MAAAAAAAAEQQSSNGPVKKSMREKAVERRSVNKEHNSNFKAGYIPIDEDRLHKTGLRGRKGNLAICVIILLFILAVINLIITLVIWAVIRIGPNGCDSMEFHESGLLRFKQVSDMGVIHPLYKSTVGGRRNENLVITGNNQPIVFQQGTTKLSVENNKTSITSDIGMQFFDPRTQNILFSTDYETHEFHLPSGVKSLNVQKASTERITSNATSDLNIKVDGRAIVRGNEGVFIMGKTIEFHMGGNMELKAENSIILNGSVMVSTTRLPSSSSGDQLGSGDWVRYKLCMCADGTLFKVQVRSQNMGCQISDNPCGNTH [T301R]: -0.14; for MAAAAAAAAEQQSSNGPVKKSMREKAVERRSVNKEHNSNFKAGYIPIDEDRLHKTGLRGRKGNLAICVIILLFILAVINLIITLVIWAVIRIGPNGCDSMEFHESGLLRFKQVSDMGVIHPLYKSTVGGRRNENLVITGNNQPIVFQQGTTKLSVENNKTSITSDIGMQFFDPRTQNILFSTDYETHEFHLPSGVKSLNVQKASTERITSNATSDLNIKVDGRAIVRGNEGVFIMGKTIEFHMGGNMELKAENSIILNGSVMVSTTRLPSSSSGDQLGSGDWVRYKLCMCADGTLFKVQVHSQNMGCQISDNPCGNTH [T301H]: -0.15.
Turning to MAAAAAAAAEQQSSNGPVKKSMREKAVERRSVNKEHNSNFKAGYIPIDEDRLHKTGLRGRKGNLAICVIILLFILAVINLIITLVIWAVIRIGPNGCDSMEFHESGLLRFKQVSDMGVIHPLYKSTVGGRRNENLVITGNNQPIVFQQGTTKLSVENNKTSITSDIGMQFFDPRTQNILFSTDYETHEFHLPSGVKSLNVQKASTERITSNATSDLNIKVDGRAIVRGNEGVFIMGKTIEFHMGGNMELKAENSIILNGSVMVSTTRLPSSSSGDQLGSGDWVRYKLCMCADGTLFKVQVGSQNMGCQISDNPCGNTH [T301G], the “SGCB cell-surface expression functional score (log10)” value was found to be 0.13.
In the case of MAAAAAAAAEQQSSNGPVKKSMREKAVERRSVNKEHNSNFKAGYIPIDEDRLHKTGLRGRKGNLAICVIILLFILAVINLIITLVIWAVIRIGPNGCDSMEFHESGLLRFKQVSDMGVIHPLYKSTVGGRRNENLVITGNNQPIVFQQGTTKLSVENNKTSITSDIGMQFFDPRTQNILFSTDYETHEFHLPSGVKSLNVQKASTERITSNATSDLNIKVDGRAIVRGNEGVFIMGKTIEFHMGGNMELKAENSIILNGSVMVSTTRLPSSSSGDQLGSGDWVRYKLCMCADGTLFKVQVFSQNMGCQISDNPCGNTH [T301F], the “SGCB cell-surface expression functional score (log10)” value is -0.72.
Regarding MAAAAAAAAEQQSSNGPVKKSMREKAVERRSVNKEHNSNFKAGYIPIDEDRLHKTGLRGRKGNLAICVIILLFILAVINLIITLVIWAVIRIGPNGCDSMEFHESGLLRFKQVSDMGVIHPLYKSTVGGRRNENLVITGNNQPIVFQQGTTKLSVENNKTSITSDIGMQFFDPRTQNILFSTDYETHEFHLPSGVKSLNVQKASTERITSNATSDLNIKVDGRAIVRGNEGVFIMGKTIEFHMGGNMELKAENSIILNGSVMVSTTRLPSSSSGDQLGSGDWVRYKLCMCADGTLFKVQVSSQNMGCQISDNPCGNTH [T301S], the “SGCB cell-surface expression functional score (log10)” value was -0.16.
The same measure for MAAAAAAAAEQQSSNGPVKKSMREKAVERRSVNKEHNSNFKAGYIPIDEDRLHKTGLRGRKGNLAICVIILLFILAVINLIITLVIWAVIRIGPNGCDSMEFHESGLLRFKQVSDMGVIHPLYKSTVGGRRNENLVITGNNQPIVFQQGTTKLSVENNKTSITSDIGMQFFDPRTQNILFSTDYETHEFHLPSGVKSLNVQKASTERITSNATSDLNIKVDGRAIVRGNEGVFIMGKTIEFHMGGNMELKAENSIILNGSVMVSTTRLPSSSSGDQLGSGDWVRYKLCMCADGTLFKVQVISQNMGCQISDNPCGNTH [T301I]: -0.29.
Turning to MAAAAAAAAEQQSSNGPVKKSMREKAVERRSVNKEHNSNFKAGYIPIDEDRLHKTGLRGRKGNLAICVIILLFILAVINLIITLVIWAVIRIGPNGCDSMEFHESGLLRFKQVSDMGVIHPLYKSTVGGRRNENLVITGNNQPIVFQQGTTKLSVENNKTSITSDIGMQFFDPRTQNILFSTDYETHEFHLPSGVKSLNVQKASTERITSNATSDLNIKVDGRAIVRGNEGVFIMGKTIEFHMGGNMELKAENSIILNGSVMVSTTRLPSSSSGDQLGSGDWVRYKLCMCADGTLFKVQVQSQNMGCQISDNPCGNTH [T301Q], the “SGCB cell-surface expression functional score (log10)” value is 0.16.
The same measure for MAAAAAAAAEQQSSNGPVKKSMREKAVERRSVNKEHNSNFKAGYIPIDEDRLHKTGLRGRKGNLAICVIILLFILAVINLIITLVIWAVIRIGPNGCDSMEFHESGLLRFKQVSDMGVIHPLYKSTVGGRRNENLVITGNNQPIVFQQGTTKLSVENNKTSITSDIGMQFFDPRTQNILFSTDYETHEFHLPSGVKSLNVQKASTERITSNATSDLNIKVDGRAIVRGNEGVFIMGKTIEFHMGGNMELKAENSIILNGSVMVSTTRLPSSSSGDQLGSGDWVRYKLCMCADGTLFKVQVVSQNMGCQISDNPCGNTH [T301V]: -0.21.
For MAAAAAAAAEQQSSNGPVKKSMREKAVERRSVNKEHNSNFKAGYIPIDEDRLHKTGLRGRKGNLAICVIILLFILAVINLIITLVIWAVIRIGPNGCDSMEFHESGLLRFKQVSDMGVIHPLYKSTVGGRRNENLVITGNNQPIVFQQGTTKLSVENNKTSITSDIGMQFFDPRTQNILFSTDYETHEFHLPSGVKSLNVQKASTERITSNATSDLNIKVDGRAIVRGNEGVFIMGKTIEFHMGGNMELKAENSIILNGSVMVSTTRLPSSSSGDQLGSGDWVRYKLCMCADGTLFKVQVYSQNMGCQISDNPCGNTH [T301Y], the “SGCB cell-surface expression functional score (log10)” value is 0.14.
On to MAAAAAAAAEQQSSNGPVKKSMREKAVERRSVNKEHNSNFKAGYIPIDEDRLHKTGLRGRKGNLAICVIILLFILAVINLIITLVIWAVIRIGPNGCDSMEFHESGLLRFKQVSDMGVIHPLYKSTVGGRRNENLVITGNNQPIVFQQGTTKLSVENNKTSITSDIGMQFFDPRTQNILFSTDYETHEFHLPSGVKSLNVQKASTERITSNATSDLNIKVDGRAIVRGNEGVFIMGKTIEFHMGGNMELKAENSIILNGSVMVSTTRLPSSSSGDQLGSGDWVRYKLCMCADGTLFKVQVPSQNMGCQISDNPCGNTH [T301P], for which the “SGCB cell-surface expression functional score (log10)” value was -0.57.
Consider MAAAAAAAAEQQSSNGPVKKSMREKAVERRSVNKEHNSNFKAGYIPIDEDRLHKTGLRGRKGNLAICVIILLFILAVINLIITLVIWAVIRIGPNGCDSMEFHESGLLRFKQVSDMGVIHPLYKSTVGGRRNENLVITGNNQPIVFQQGTTKLSVENNKTSITSDIGMQFFDPRTQNILFSTDYETHEFHLPSGVKSLNVQKASTERITSNATSDLNIKVDGRAIVRGNEGVFIMGKTIEFHMGGNMELKAENSIILNGSVMVSTTRLPSSSSGDQLGSGDWVRYKLCMCADGTLFKVQVNSQNMGCQISDNPCGNTH [T301N], for which the “SGCB cell-surface expression functional score (log10)” value was -0.45.

For the origin of these results see the supplement of paper PMC10266784.
